Data as given in paper doi:10.1101/801027.

Biological target: T1, Hfq (Pseudomonas putida KT2440, UniProt Q88DD3 1-86)
T1 sequence: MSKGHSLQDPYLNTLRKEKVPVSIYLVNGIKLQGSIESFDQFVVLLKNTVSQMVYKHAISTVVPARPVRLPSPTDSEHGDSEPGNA
Experiment: EMSA

B1: MicC scaffold (structured_RNA)
RNA: UUUCUGUUGGGCCAUUGCAUUGCCACUGAUUUUCCAACAUAUAAAAAGACAAGCCCGAACAGUCGUCCGGGCUUUUUUU
  binding result: binds
